Test results published in the supplement of paper PMC6379048.

Key:
TARDBP [1] = target: TARDBP (UniProt Q13148); test: EC50 of free RNA motif oligo competing protein binding to immobilised probe
In short: (§1)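 Kd was calculated as EC50, taken from a four-parameter log-logistic fit, multiplied by a protein-dependent depletion factor. The assay used HEK293-FT lysate (2.5 mg protein/well) pre-incubated for 1 h at 4°C with free RNA oligos (0 nM to 30 μM), then incubated for 30 min at 4°C with the matching oligos bound through a 5′-amino-C6 linker to NHS-Sepharose beads. Bound proteins were measured by label-free LC-MS/MS and normalised to the control.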

MEX3C = target: T1, MEX3C (UniProt Q5U5Q3); test: as above
T1 sequence: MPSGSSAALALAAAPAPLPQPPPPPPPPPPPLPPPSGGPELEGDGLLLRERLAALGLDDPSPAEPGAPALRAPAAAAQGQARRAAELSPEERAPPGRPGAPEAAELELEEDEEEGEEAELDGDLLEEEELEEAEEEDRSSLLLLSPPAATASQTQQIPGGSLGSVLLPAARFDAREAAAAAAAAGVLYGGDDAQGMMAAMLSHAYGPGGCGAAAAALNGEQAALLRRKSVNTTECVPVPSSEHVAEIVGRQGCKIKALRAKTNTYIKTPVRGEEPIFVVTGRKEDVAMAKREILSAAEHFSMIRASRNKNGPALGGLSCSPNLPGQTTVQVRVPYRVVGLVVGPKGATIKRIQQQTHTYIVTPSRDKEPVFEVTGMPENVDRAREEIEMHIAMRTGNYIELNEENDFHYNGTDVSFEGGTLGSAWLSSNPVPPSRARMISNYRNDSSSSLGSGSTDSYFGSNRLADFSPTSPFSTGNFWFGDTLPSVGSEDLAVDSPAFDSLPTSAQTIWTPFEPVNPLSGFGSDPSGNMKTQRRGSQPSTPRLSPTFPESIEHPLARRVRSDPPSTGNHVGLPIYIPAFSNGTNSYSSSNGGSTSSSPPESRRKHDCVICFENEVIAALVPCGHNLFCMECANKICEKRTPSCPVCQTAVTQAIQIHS
In short: as §1

TARDBP [2] = target: TARDBP (UniProt Q13148); test: Kd (EC50 corrected by depletion factor)
In short: as §1

MRPL11 = MRPL11 (UniProt Q9Y3B7); test: EC50 of free RNA motif oligo competing protein binding to immobilised probe
In short: as §1

U2AF1 = target: T2, U2AF1 (UniProt Q01081); test: as above
T2 sequence: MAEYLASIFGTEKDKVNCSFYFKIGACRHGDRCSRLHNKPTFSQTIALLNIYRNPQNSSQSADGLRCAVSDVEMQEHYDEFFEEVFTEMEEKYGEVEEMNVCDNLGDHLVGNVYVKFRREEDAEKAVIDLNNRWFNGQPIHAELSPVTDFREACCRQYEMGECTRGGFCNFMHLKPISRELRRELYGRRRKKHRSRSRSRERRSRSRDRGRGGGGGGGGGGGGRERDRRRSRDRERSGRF
In short: as §1

MCM4 = target: T3, MCM4 (UniProt P33991); test: as above
T3 sequence: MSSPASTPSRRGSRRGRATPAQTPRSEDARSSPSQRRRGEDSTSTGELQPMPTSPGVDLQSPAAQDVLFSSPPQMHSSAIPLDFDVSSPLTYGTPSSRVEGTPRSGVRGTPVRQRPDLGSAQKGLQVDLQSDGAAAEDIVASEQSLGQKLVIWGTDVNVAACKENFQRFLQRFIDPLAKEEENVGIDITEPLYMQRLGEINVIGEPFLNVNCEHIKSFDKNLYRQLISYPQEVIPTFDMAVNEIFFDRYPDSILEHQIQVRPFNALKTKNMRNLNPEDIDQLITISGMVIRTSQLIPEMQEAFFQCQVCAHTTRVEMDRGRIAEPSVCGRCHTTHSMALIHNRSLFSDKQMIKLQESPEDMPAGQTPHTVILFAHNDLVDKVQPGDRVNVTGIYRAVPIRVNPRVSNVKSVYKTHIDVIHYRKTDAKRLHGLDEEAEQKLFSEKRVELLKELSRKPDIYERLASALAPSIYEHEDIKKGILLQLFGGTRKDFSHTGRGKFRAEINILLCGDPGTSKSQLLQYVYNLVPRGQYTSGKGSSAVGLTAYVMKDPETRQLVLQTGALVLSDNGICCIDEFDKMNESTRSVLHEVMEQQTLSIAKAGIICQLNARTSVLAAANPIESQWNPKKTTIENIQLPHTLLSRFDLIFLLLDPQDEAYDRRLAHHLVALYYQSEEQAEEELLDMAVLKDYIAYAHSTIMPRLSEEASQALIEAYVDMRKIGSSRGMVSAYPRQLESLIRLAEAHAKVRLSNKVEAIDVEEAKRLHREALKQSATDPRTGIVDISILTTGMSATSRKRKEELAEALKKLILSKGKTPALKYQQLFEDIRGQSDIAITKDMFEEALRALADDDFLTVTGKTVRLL
In short: as §1

HNRNPF = target: T4, HNRNPF (UniProt P52597); test: as above
T4 sequence: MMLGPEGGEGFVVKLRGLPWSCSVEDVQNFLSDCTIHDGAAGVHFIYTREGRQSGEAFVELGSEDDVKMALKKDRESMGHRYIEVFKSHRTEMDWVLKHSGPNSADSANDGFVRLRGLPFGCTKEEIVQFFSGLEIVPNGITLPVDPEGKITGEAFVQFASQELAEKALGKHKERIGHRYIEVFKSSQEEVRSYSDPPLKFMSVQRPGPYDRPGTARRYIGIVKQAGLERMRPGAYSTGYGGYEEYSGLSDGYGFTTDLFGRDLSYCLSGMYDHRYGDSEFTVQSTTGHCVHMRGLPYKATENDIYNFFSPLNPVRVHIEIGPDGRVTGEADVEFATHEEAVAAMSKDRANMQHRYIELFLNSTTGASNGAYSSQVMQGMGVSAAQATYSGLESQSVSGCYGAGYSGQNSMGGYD
In short: as §1

Sequence of TARDBP (Q13148 whole entry): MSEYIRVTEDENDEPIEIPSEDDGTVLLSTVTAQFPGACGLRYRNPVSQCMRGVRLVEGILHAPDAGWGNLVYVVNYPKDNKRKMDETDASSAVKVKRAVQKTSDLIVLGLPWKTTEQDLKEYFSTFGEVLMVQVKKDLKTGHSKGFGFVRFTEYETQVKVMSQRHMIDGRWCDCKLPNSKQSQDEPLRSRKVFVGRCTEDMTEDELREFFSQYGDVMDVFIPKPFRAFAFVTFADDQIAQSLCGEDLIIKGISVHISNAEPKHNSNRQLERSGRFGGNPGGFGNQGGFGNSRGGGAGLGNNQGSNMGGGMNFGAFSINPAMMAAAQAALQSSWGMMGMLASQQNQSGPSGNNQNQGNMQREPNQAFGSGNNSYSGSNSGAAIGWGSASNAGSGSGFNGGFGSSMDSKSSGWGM

UAUUUAU
EC50 (TARDBP [1]): 2.79 µM
EC50 (MEX3C): 0.799 µM
Kd (TARDBP [2]): 1.32 µM

CUGUCCU
EC50 (MRPL11): 0.118 µM

AAUAAA
EC50 (U2AF1): 1.46 µM
EC50 (MCM4): 0.05 µM
EC50 (HNRNPF): 6.12 µM
